This data set addresses MHF1 (CENP-S);MHF2 (CENP-X) (Homo sapiens;Homo sapiens, UniProt Q8N2Z9;A8MT69 1-138;1-81, |). The experiment in a line: X-ray crystallography.

Chain of MHF1 (CENP-S);MHF2 (CENP-X) (Q8N2Z9 whole entry, chain 1 of 2): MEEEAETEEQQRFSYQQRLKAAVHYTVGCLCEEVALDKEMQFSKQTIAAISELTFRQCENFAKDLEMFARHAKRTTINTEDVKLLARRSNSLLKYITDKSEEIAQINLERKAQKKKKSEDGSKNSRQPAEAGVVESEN
Chain of MHF1 (CENP-S);MHF2 (CENP-X) (A8MT69 whole entry, chain 2 of 2): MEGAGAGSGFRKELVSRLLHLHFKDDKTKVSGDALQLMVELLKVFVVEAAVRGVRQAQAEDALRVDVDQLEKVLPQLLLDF

B1: 26 bp dsDNA (crystal) (dsDNA)
DNA 1: ATCAATATCCACCGGTGGATATTGAT
DNA 2: ATCAATATCCACCGGTGGATATTGAT
Regarding B1, the binding result is “binds”.
